The results in this text go back to publication PMC7498358.

This series concerns the target YB-1 CSDex (Homo sapiens, UniProt P67809 51-140). Kind of series: NMR HSQC titration.

Chain of YB-1 CSDex (P67809 51-140): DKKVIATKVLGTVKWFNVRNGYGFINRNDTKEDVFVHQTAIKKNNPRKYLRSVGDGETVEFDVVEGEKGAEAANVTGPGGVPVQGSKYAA

B1: CACC dsDNA (dsDNA)
DNA 1: TCAACACCTC
DNA 2: GAGGTGTTGA
On to B1, for which the binding result was “binds”.
